The record followed here is IntAct's records for PubMed 31515488.

First the molecules themselves.
B1: Mediator of RNA polymerase II transcription subunit 18 (Homo sapiens), Q9BUE0 (parent)
chain: MEAPPVTMMPVTGGTINMMEYLLQGSVLDHSLESLIHRLRGLCDNMEPETFLDHEMVFLLKGQQASPFVLRARRSMDRAGAPWHLRYLGQPEMGDKNRHALVRNCVDIATSENLTDFLMEMGFRMDHEFVAKGHLFRKGIMKIMVYKIFRILVPGNTDSTEALSLSYLVELSVVAPAGQDMVSDDMKNFAEQLKPLVHLEKIDPKRLM
partner: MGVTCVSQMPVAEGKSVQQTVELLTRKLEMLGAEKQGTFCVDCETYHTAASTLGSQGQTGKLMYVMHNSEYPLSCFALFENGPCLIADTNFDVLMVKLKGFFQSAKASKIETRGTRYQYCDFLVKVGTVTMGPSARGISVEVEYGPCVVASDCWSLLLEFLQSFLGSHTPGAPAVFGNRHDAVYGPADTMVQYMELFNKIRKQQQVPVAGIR
B2: Keratin-associated protein 26-1 (Homo sapiens), Q6PEX3 (parent)
chain: MSCPNYCSGNSNSGSLRTSRHIPLTSIDLCPTSVSCGDVLYLPTSSQDHTWVTDNCQETCGEPTSCQPVHCETGNLETSCGSSTAYYVPRPCQGSSFLPASFFSSSCLPVSCRPQRYVSSGCRPLRPLLNSYQPIGDCVPNAYRPQFCLSKSCQPQNLLTSGCQPSSCLAYRPQSLHVVSSSLRPLGPLFSGCQPLTHVFSTCRPSCSGL
partner: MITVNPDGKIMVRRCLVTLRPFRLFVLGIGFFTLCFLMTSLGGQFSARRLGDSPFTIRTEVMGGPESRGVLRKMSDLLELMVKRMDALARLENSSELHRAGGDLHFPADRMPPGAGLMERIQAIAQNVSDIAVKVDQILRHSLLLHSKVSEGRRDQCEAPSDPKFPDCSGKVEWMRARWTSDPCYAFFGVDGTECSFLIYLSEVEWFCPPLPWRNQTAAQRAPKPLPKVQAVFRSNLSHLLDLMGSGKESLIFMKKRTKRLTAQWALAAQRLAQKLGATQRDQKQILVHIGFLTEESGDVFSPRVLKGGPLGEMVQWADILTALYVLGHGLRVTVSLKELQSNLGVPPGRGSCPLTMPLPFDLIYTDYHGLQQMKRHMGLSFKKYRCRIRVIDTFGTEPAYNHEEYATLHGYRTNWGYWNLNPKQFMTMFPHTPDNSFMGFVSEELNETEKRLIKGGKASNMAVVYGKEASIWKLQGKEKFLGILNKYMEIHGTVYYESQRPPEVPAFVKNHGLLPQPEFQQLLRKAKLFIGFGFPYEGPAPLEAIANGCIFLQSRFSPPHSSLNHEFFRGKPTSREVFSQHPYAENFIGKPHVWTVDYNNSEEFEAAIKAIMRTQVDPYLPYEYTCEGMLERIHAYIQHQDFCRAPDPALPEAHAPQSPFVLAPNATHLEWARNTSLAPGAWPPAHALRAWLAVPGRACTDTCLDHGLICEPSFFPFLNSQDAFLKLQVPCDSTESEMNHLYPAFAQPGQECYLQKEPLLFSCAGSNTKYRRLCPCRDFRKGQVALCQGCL
B3: Inositol monophosphatase 1 (Homo sapiens), P29218-1 (parent)
chain: MADPWQECMDYAVTLARQAGEVVCEAIKNEMNVMLKSSPVDLVTATDQKVEKMLISSIKEKYPSHSFIGEESVAAGEKSILTDNPTWIIDPIDGTTNFVHRFPFVAVSIGFAVNKKIEFGVVYSCVEGKMYTARKGKGAFCNGQKLQVSQQEDITKSLLVTELGSSRTPETVRMVLSNMEKLFCIPVHGIRSVGTAAVNMCLVATGGADAYYEMGIHCWDVAGAGIIVTEAGGVLMDVTGGPFDLMSRRVIAANNRILAERIAKEIQVIPLQRDDED
partner: B3 chain
B4: 26S proteasome non-ATPase regulatory subunit 9 (Homo sapiens), O00233 (parent)
chain: MSDEEARQSGGSSQAGVVTVSDVQELMRRKEEIEAQIKANYDVLESQKGIGMNEPLVDCEGYPRSDVDLYQVRTARHNIICLQNDHKAVMKQVEEALHQLHARDKEKQARDMAEAHKEAMSRKLGQSESQGPPRAFAKVNSISPGSPASIAGLQVDDEIVEFGSVNTQNFQSLHNIGSVVQHSEGKPLNVTVIRRGEKHQLRLVPTRWAGKGLLGCNIIPLQR
B5: U3 small nucleolar RNA-associated protein 14 homolog C (Homo sapiens), Q5TAP6 (parent)
chain: MNVNQVAENLALSHQEELVDLPKNYPLSENEDEGDSDGERKHQKLLEAIISLDGKNRRKLAERSEASLKVSEFSVSSEGSGEKLGLADLLEPVKTSSSLATVKKQLNRVKSKKVVELPLNKEKIEQIHREVAFSKTSQVLSKWDPIILKNQQAEQLVFPLGKEQPAIAPIEHALSGWKARTPLEQEIFNLLHKNKQPVTDPLLTPMEKASLQAMSLEEAKMHRAELQRARALQSYYEAKARKEKKIKSKKYHKVVKKGKAKKALKEFEQLQKVNPTVALEEMEKIENARMMERMSLKHQNSGKWAKSKAIMAKYDLEARQAMQEQLAKNKELTQKLQVASESEEEEGGTEVEELLVPHVANEVQMNVDGPNPWMFRSCTSDTKEAATQEDPEQVPELAAHEVSASEAEERPVAEEEILLREFEERQSLRKRSELNQDAEPASSQETKDSSSQEVLSELRALSQKLKEKHQSRKQKASSEGTVPQVQREEPAPEEAEPLLLQRSERVQTLEELEELGKEDCFQNKELPRPVLEGQQSERTPNNRPDAPKEKKEKEQLINLQNFLTTQSPSVRSLAVPTIIEELEDEEERDQRQMIKEAFAGDDVIRDFLKEKREAVEASKPKDVDLTLPGWGEWGGVGLKPSAKKRRQFLIKAPEGPPRKDKNLPNVIISEKRNIHAAAHQVQVLPYPFTHHRQFERTIQTPIGSTWNTQRAFQKLTTPKVVTKPGHIIKPIKAEDVGYQSSSRSDLPVIQRNPKRITTRHNKEEKL
partner: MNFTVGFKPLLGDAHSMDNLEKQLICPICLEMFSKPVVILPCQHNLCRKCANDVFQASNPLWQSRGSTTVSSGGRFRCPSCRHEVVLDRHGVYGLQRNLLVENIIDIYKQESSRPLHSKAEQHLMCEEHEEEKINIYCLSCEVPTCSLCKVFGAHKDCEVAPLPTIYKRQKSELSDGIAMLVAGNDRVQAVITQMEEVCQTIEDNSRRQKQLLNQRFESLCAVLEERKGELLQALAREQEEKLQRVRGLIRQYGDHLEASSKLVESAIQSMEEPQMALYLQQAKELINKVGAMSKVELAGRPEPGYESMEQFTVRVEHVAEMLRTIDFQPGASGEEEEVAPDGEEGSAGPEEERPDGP
B6: Endoplasmic reticulum resident protein 27 (Homo sapiens), Q96DN0 (parent)
chain: MEAAPSRFMFLLFLLTCELAAEVAAEVEKSSDGPGAAQEPTWLTDVPAAMEFIAATEVAVIGFFQDLEIPAVPILHSMVQKFPGVSFGISTDSEVLTHYNITGNTICLFRLVDNEQLNLEDEDIESIDATKLSRFIEINSLHMVTEYNPVTVIGLFNSVIQIHLLLIMNKASPEYEENMHRYQKAAKLFQGKILFILVDSGMKENGKVISFFKLKESQLPALAIYQTLDDEWDTLPTAEVSVEHVQNFCDGFLSGKLLKENRESEGKTPKVEL

Variants of B1 are the subject of one experiment. The following applies: with med20_human MED20, Q9H944.
For M19V, the “effect of a mutation on the interaction” value is “with no effect”.

The next experiment covers variants of B2. The following applies: with mgt5b_human MGAT5B.
S26Y: the “effect of a mutation on the interaction” value is “with no effect”.

The next experiment covers variants of B3. The following applies: with impa1_human IMPA1, P29218.
G164S: the “effect of a mutation on the interaction” value is “with no effect”.

Another experiment covers variants of B4. The conditions noted are these: with prs6a_human PSMC3, P17980.
Sequence of prs6a_human PSMC3, P17980 (P17980 whole entry): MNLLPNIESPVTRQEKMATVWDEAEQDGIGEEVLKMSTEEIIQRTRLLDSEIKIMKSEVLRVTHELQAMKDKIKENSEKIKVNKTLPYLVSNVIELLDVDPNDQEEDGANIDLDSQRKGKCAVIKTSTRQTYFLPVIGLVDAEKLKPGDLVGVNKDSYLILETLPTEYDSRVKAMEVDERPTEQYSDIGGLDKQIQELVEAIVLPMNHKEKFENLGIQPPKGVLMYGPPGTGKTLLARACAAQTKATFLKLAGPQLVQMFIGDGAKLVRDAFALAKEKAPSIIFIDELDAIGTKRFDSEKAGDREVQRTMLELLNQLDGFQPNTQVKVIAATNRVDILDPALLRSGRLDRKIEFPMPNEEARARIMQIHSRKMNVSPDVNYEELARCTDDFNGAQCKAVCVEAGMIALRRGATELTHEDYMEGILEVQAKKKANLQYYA
In the case of R134W, the “effect of a mutation on the interaction” value is “with no effect”.

Take E197G: the “effect of a mutation on the interaction” value is “with no effect”.

With R110W, the “effect of a mutation on the interaction” value is “with no effect”.

Variants of B4 are the subject of the next experiment. The conditions noted are these: with prs10_human PSMC6, P62333.
Sequence of prs10_human PSMC6, P62333 (P62333 whole entry): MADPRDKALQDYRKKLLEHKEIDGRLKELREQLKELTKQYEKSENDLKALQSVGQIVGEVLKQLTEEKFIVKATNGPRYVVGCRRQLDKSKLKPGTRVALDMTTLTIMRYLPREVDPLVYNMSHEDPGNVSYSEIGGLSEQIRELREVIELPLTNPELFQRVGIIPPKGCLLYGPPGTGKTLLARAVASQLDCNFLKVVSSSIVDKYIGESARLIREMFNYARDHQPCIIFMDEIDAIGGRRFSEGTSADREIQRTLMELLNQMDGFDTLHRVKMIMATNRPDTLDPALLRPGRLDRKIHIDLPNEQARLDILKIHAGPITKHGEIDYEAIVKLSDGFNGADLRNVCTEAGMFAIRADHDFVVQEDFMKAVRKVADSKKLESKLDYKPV
For R134W, the “effect of a mutation on the interaction” value was “with no effect”.

Take R110W: the “effect of a mutation on the interaction” value is recorded as “with no effect”.

Variants of B4 are the subject of another experiment. The conditions noted are these: with spn90_human NCKIPSD.
R134W: the “effect of a mutation on the interaction” value is given as “with no effect”.

As for E197G, the “effect of a mutation on the interaction” value is listed as “with no effect”.

On to R110W, for which the “effect of a mutation on the interaction” value is reported as “with no effect”.

Variants of B4 are the subject of the next experiment. The conditions noted are these: with cc136_human CCDC136, Q96JN2.
Sequence of cc136_human CCDC136, Q96JN2 (Q96JN2 whole entry): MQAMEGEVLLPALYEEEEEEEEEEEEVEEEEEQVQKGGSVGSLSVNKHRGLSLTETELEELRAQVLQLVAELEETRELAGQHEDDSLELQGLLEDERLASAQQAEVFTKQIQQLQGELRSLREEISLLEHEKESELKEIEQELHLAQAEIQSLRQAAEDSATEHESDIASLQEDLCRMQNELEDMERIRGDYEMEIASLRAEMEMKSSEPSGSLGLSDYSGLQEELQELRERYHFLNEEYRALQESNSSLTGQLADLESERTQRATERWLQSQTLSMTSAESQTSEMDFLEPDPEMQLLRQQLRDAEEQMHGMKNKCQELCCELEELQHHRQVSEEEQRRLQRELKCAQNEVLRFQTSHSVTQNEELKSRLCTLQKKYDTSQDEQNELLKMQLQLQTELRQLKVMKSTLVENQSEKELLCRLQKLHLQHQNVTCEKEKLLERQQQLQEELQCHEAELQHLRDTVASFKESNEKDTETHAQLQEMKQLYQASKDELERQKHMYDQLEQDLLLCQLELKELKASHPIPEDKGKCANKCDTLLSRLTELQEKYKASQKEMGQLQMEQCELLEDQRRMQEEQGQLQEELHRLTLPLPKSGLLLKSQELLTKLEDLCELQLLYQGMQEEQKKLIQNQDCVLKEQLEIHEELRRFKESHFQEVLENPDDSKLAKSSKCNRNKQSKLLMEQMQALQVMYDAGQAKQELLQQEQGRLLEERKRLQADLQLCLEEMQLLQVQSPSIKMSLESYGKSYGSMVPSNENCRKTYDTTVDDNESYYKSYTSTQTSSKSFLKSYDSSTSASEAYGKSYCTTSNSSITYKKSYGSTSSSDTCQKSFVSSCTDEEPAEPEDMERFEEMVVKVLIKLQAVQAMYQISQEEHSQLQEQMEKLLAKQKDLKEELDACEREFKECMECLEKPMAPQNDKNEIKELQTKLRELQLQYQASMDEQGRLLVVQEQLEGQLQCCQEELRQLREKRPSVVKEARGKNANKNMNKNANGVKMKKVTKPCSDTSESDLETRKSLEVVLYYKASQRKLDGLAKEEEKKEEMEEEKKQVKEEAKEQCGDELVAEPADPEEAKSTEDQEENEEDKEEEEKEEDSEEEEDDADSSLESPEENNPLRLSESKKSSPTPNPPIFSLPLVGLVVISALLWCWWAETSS
In the case of R110W, the “effect of a mutation on the interaction” value was “with no effect”.

With V17A, the “effect of a mutation on the interaction” value is recorded as “with no effect”.

Variants of B5 are the subject of a further experiment. The following applies: with tri54_human TRIM54, Q9BYV2.
As for K247E, the “effect of a mutation on the interaction” value is “with no effect”.

Turning to R672H, the “effect of a mutation on the interaction” value was “with no effect”.

For T101A, the “effect of a mutation on the interaction” value was “disrupting interaction strength”.

Turning to V109D, the “effect of a mutation on the interaction” value is on record as “with no effect”.

With V570M, the “effect of a mutation on the interaction” value is given as “with no effect”.

On to I170V, for which the “effect of a mutation on the interaction” value is listed as “with no effect”.

Consider A652T, for which the “effect of a mutation on the interaction” value was “with no effect”.

Variants of B6 are the subject of a further experiment. The following applies: with ef1d_human EEF1D.
E122K: the “effect of a mutation on the interaction” value was “with no effect”.

In a further experiment the parent is B6. The conditions noted are these: with ubql1_human UBQLN1, Q9UMX0.
Sequence of ubql1_human UBQLN1, Q9UMX0 (Q9UMX0 whole entry): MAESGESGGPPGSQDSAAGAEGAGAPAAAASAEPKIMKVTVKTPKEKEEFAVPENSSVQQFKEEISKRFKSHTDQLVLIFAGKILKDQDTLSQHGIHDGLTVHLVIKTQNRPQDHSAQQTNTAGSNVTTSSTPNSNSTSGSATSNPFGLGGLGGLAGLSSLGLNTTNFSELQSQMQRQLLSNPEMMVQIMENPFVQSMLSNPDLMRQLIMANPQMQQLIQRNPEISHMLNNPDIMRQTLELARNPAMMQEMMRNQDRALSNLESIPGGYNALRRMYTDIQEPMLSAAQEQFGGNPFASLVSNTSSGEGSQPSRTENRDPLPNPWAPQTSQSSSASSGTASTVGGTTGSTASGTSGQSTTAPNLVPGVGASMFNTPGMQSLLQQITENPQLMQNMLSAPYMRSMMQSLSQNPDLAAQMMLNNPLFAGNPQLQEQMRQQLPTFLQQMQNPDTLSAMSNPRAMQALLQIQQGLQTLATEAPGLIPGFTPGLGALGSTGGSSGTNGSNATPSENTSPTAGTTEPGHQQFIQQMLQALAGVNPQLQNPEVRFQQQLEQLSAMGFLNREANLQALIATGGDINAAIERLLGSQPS
In the case of E122K, the “effect of a mutation on the interaction” value is recorded as “with no effect”.

In another experiment the parent is B6. The conditions noted are these: with sgta_human SGTA.
For E122K, the “effect of a mutation on the interaction” value was “with no effect”.
